Laboratory results from patent publication US20070098706A1 (University of Texas, published 2007).

T1: GST-NOXA1(SH3+) (human, UniProt Q86UR1 1-476)
T1 construct: the vector-encoded linker is not described; Immobilised on GSH-Sepharose; not shown: glutathione-S-transferase (GST) encoded by vector pGEX-3X
T1 sequence: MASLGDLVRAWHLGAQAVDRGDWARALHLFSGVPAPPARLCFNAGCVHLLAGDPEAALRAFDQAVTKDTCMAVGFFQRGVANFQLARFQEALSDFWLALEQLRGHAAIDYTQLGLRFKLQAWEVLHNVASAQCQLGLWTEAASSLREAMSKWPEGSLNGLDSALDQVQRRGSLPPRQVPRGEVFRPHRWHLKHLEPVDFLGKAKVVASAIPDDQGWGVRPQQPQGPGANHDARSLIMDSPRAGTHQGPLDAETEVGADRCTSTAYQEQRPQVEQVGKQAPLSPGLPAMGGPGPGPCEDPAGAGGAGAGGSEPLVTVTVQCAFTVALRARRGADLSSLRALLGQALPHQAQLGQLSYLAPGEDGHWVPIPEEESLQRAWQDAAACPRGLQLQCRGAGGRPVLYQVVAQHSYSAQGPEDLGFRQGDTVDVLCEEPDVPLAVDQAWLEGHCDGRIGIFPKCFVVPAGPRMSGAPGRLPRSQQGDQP

B1: MBP-NOXO1(288-370) (other, human, UniProt Q8NFA2 294-376, looked up, not shown: large carriers)
chain: EGLGALLSGTGFRGGDDPAGEARGFPEPSQATAPPPTVPTRPSPGAIQSRCCTVTRRALERRPRRQGRPRGCVDSVPHPTTEQ
modifications: labeled in vitro with [35S]-methionine/[35S]-cysteine
notes: range 294-376; Cloned at the SacI/XhoI sites of pET23bMBPH6 in frame with MBP; linker and any vector tag are not described; Made by in vitro coupled transcription/translation; also called NBP-NOXO1(288-370)
B2: human p47^phox (other, UniProt P14598 1-390, looked up)
chain: MGDTFIRHIALLGFEKRFVPSQHYVYMFLVKWQDLSEKVVYRRFTEIYEFHKTLKEMFPIEAGAINPENRIIPHLPAPKWFDGQRAAENRQGTLTEYCSTLMSLPTKISRCPHLLDFFKVRPDDLKLPTDNQTKKPETYLMPKDGKSTATDITGPIILQTYRAIANYEKTSGSEMALSTGDVVEVVEKSESGWWFCQMKAKRGWIPASFLEPLDSPDETEDPEPNYAGEPYVAIKAYTAVEGDEVSLLEGEAVEVIHKLLDGWWVIRKDDVTGYFPSMYLQKSGQDVSQAQRQIKRGAPPRRSSIRNAHSIHQRSRKRLSQDAYRRNSVRFLQQRRRQARPGPQSPGSPLEEERQTQRSKPQPAVPPRPSADLILNRCSESTKRKLASAV
modifications: labeled in vitro with [35S]-methionine/[35S]-cysteine
notes: no residue limits are printed
B3: GST-(SH3)+ (other)
chain: RGLQLQCRGAGGRPVLYQVVAQHSYSAQGPEDLGFRQGDTVDVLCEEPDVPLAVDQAWLEGHCDGRIGIFPKCFVVPAGPRMSGAPGRLPRSQQGDQP
notes: Cloned at the EcoRI site of pGEX-3X in frame with GST; the linker is not described; also called fusion protein of GST and the C-terminal NOXA1(SH3+) polypeptide; not shown: glutathione-S-transferase (GST) encoded by vector pGEX-3X

Legend:
[1] = target: T1, GST-NOXA1(SH3+); experiment: GST pull-down of 35S-labelled MBP-NOXO1(288-370), SDS-PAGE and fluorography
Protocol: (§1) Binding interactions are carried out between GST, GST-NOXA1, GST-NOXA1_{SH3+)}, GST-(SH3wt) and GST-(SH3+) fusion proteins immobilized on GSH-Sepharose, and the in vitro synthesized [³⁵S]-labeled target proteins. Volumes of fusion protein bacterial lysates, previously determined to give equal loading of the GSH-Sepharose, are mixed for 5 min at room temperature with 250 μl of a 50% suspension of washed GSH-Sepharose in PBS (137 mM NaCl, 2.68 mM KCl, […] Na2HPO4, pH 7.3). The suspension is washed twice and resuspended to 500 μl in PBS with 10 mM DTT. Human NOX1, NOX2, p47^phox and MBP-NOXO1₍₂₈₈₋₃₇₀₎ are synthesized and labeled in vitro with [³⁵S]-methlionine/[³⁵S]-cysteine (Redivue Pro-mix L-[³⁵S] labeling mix, Amersham Biosciences, Inc. # AGQ0080) using the TNT® Coupled Reticulocyte Lysate System (Promega) and T7 RNA polymerase. A 24 μl aliquot of the labeling reaction is mixed with 476 μl of the resuspended immobilized GST fusion protein for 15 min at room temperature. The gel pellet is washed 4X with 500 μl of PBS/10 mM DTT/0.05% Triton X-100. […] The entire volume of the denatured samples is separated on 9% SDS-PAGE and analyzed by fluorography. A sample of the original binding gel is analyzed by denaturing SDS-PAGE and Coomassie staining to confirnm the loading of the GST proteins. […]

[2] = target: B3; experiment: GST pull-down of 35S-labelled MBP-NOXO1(288-370) with isolated SH3-containing polypeptides
Protocol: as §1

[3] = target: T1, GST-NOXA1(SH3+); experiment: GST pull-down of 35S-labelled p47phox, SDS-PAGE and fluorography
Protocol: as §1

[4] = target: B2; experiment: GST pull-down of 35S-labelled p47phox with isolated SH3-containing polypeptides
Protocol: as §1

Binder: B1
binding result [1]: no binding
binding result [2]: no binding

Binder: B2
binding result [3]: no binding

Binder: B3
binding result [4]: no binding
